Where only a bound is given, the exact number is not on record here.

The target in assay [1] is cleavage-defective YU2 gp160?CT glycoprotein (HIV-1 isolate YU2; bovine rhodopsin) (UniProt P35961). In words: FACS on PLs, with against without sCD4 preincubation (without = 100%).
Assay [2] deals with Cleavage-competent YU2 gp160?CT glycoprotein (HIV-1 isolate YU2; bovine rhodopsin) (UniProt P35961). In words: FACS on 293T cells, with against without sCD4 preincubation (without = 100%).
The target in assay [3] is cleavage-defective YU2 gp160?CT glycoprotein (HIV-1 isolate YU2; bovine rhodopsin) (UniProt P35961). In words: FACS titration; saturation not reached with C11.
Assay [4] shares this target. In words: FACS titration on gp160?CT PLs / 293T cells, half-maximal binding.
For assay [5], the target named is HXBc2 gp160?CT glycoprotein (HIV-1 isolate HXBc2; bovine rhodopsin) (UniProt P04578). In words: FACS titration, anti-human IgG PE.

Consider 17b antibody, for which the % increase of 17b binding after preincubation with sCD4 in assay [1] is 46%; in assay [2], 63%.

In turn, C11 antibody showed a fold lower affinity than IgG1b12 in assay [3] of more than 10 fold.

For the substance IgG1b12 antibody, the EC50 (in general, the concentration that produces a half-maximal response) in assay [4] is 6 nM.

In assay [5], 2F5 antibody registered a fold higher affinity on PLs with a reconstituted membrane than on beads without a membrane of 10 fold.

The values are drawn from US20040109887A1.
